Values of other authors as cited in publication PMC4621241.

Target: MetQ (Escherichia coli) (UniProt P28635)
Sequence (P28635 23-271): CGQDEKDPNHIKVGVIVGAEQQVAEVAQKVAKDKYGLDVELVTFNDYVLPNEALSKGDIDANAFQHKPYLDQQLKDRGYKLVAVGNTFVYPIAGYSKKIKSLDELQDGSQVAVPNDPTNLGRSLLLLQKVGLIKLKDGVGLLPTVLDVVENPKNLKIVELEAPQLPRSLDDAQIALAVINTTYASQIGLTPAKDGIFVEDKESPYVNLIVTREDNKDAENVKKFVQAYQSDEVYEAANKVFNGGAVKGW

MetNI, sequence (P30750 whole entry): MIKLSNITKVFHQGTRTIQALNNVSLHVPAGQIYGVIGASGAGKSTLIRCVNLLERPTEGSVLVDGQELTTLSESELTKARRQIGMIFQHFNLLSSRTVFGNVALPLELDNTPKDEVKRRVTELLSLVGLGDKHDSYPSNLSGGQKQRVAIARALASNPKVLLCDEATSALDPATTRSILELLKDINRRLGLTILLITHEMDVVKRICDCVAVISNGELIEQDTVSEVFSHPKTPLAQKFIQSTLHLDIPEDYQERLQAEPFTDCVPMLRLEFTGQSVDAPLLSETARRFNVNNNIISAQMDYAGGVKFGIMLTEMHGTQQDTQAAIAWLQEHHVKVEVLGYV
MetNI, sequence (P31547 whole entry, further chain): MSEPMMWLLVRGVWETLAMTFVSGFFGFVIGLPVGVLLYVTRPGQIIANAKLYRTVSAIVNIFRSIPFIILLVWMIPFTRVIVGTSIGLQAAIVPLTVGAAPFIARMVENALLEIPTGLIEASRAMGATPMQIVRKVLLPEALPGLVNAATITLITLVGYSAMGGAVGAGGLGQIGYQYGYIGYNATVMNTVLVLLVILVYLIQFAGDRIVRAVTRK

- Kd: 74 µM
Substance: MetNI (from UniProt P30750)
